The target of assay [1] is T1, GFP-BC2-tag.
T1 chain: PDRKAAVSHWQQ
Briefly: SPR. (In SPR one partner is held on a chip, and binding of the other changes the refractive index at the surface.)

Assay [2] deals with T1, GFP-BC2-tag. The assay is described as follows: SPR; 5 mM DTT (reduced).

For orientation: Kd means the constant that tells how readily two partners part at equilibrium. A low value points to higher affinity.

B1: anti-BC2-tag VHH (BC2-Nb) (VHH)
VHH: QVQLVESGGGLVQPGGSLTLSCTASGFTLDHYDIGWFRQAPGKEREGVSCINNSDDDTYYADSVKGRFTIFMNNAKDTVYLQMNSLKPEDTAIYYCAEARGCKRGRYEYDFWGQGTQVTVSS
In the case of B1, the Kd in assay [1] amounted to 9.28 nM; in assay [2] it was 55.2 nM.
